In article PMC6702053 (Developmental cell, 2019):

Key:
Experiment in all cases: pull-down
[1] = target: T1, GST-PI31-S168E (phospho-mimetic mutant) (Drosophila melanogaster, UniProt Q9V637 1-270, S168E)
T1 sequence (looked up): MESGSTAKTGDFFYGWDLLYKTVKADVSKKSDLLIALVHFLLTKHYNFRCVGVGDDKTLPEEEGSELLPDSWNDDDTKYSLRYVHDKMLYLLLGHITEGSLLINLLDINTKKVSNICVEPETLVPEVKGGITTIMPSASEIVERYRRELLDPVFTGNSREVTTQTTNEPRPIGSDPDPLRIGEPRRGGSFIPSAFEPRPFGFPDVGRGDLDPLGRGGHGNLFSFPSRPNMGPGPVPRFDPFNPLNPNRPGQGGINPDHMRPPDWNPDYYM

[2] = target: T2, GST-tagged wild-type PI31 (GST-PI31-WT) (Drosophila melanogaster, UniProt Q9V637 1-270)
T2 sequence (looked up): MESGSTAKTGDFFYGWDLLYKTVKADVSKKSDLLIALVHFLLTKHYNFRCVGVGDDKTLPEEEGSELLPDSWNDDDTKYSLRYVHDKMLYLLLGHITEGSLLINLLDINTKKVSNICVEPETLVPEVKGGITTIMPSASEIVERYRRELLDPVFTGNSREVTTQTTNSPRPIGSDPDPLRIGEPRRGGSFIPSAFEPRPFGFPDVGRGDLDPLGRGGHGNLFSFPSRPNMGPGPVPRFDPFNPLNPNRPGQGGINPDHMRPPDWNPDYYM

[3] = target: T3, GST-PI31-S168D (phospho-mimetic mutant) (Drosophila melanogaster, UniProt Q9V637 1-270, S168D)
T3 sequence (looked up): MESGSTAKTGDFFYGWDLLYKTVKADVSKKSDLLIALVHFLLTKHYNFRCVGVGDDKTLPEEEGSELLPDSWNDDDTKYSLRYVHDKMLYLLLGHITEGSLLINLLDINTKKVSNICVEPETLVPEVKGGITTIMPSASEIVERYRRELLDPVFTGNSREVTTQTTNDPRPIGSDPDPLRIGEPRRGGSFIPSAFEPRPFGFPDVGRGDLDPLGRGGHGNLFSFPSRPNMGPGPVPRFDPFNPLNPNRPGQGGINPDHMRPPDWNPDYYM

binding result [1]: binds
binding result [2]: binds
binding result [3]: binds
B1: recombinant FLAG-dDYNLL1 expressed in E. coli (natural protein, Drosophila melanogaster, UniProt Q24117 1-89, looked up)
chain: MSDRKAVIKNADMSEEMQQDAVDCATQALEKYNIEKDIAAYIKKEFDKKYNPTWHCIVGRNFGSYVTHETRHFIYFYLGQVAILLFKSG
